Assay results from US20070105162A1, “Monovalent avidin and streptavidin compositions” (Massachusetts Institute of Technology, priority 2005, published 2007).

Target: biotinylated AP-neuroligin-1 on rat hippocampal neurons (mouse) (UniProt Q99K10)
Test: cell-based or functional assay

monovalent streptavidin A1D3 conjugated to Alexa Fluor 568 (designed binder), sequence (chain): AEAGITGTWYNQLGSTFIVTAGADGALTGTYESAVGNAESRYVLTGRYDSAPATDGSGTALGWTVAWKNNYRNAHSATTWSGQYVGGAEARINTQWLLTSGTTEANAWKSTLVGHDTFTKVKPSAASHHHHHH
monovalent streptavidin A1D3 conjugated to Alexa Fluor 568 (designed binder), sequence (chain): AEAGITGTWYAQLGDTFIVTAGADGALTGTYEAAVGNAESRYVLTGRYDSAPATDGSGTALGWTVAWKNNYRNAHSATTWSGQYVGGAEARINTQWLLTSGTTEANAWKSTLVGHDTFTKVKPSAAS

Substance: Alexa Fluor 568-conjugated wild-type streptavidin (Molecular Probes) (from UniProt P22629 37-163)
- clusters/µm of labeled AP-neuroligin-1 after a two hour incubation: 0.266 clusters/µm

Substance: monovalent streptavidin A1D3 conjugated to Alexa Fluor 568 (designed binder)
- clusters/µm of labeled AP-neuroligin-1 after a two hour incubation: 0.087 clusters/µm
